This is an account of results in patent US20250296984A1, “THERAPEUTIC AND DIAGNOSTIC AGENTS AND USES THEREOF” (priority 2022, published 2025).

Common to all, as to experiment: HuProt Human Proteome Microarray, off-target human proteins
Assay type in all cases: binding
Common to all, as to design: key to Z Score: Z = (F635 − mean F635 of all spots) / SD; average of duplicate spots

Assay [1] deals with T1, human proteins on HuProt Human Proteome Microarray (Homo sapiens, UniProt Q96F63).
T1 construct: purchased CDI Labs (HuProt); host or cells: yeast S. cerevisiae
T1 sequence (Q96F63 1-343): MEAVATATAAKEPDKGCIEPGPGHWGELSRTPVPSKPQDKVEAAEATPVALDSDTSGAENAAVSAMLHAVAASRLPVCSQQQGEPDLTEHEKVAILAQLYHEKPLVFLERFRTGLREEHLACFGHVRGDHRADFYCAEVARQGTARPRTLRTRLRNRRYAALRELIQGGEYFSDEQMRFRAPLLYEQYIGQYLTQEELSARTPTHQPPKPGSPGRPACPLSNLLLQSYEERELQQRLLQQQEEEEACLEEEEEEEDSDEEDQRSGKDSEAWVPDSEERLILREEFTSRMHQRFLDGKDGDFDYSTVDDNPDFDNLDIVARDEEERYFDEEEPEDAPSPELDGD
The following applies: Protein: CCDC97. The source says:
(§1) The HuProt™ Human Proteome Microarray provides the largest number of unique, full-length, individually purified human proteins on a single microscope slide. It provides >21,000 unique human proteins, isoform variants, and protein fragments—covering 16,794 unique genes. This includes 15,889 of the 19,613 canonical human proteins described in the Human Protein Atlas, with broad coverage across protein subclasses. This allows thousands of interactions to be profiled in a high-throughput manner. The full-length recombinant proteins are expressed in the yeast S. cerevisiae, purified, and printed on glass slides in duplicate along with a set of control proteins (GST, BSA, histones, IgG, etc.). The full list of the different proteins included in the HuProt™ Human Proteome Microarray as used in this Example is provided as “List B” in the Research Disclosures publication (ISSN 0374-4353, Questel Ireland Ltd) with database numbers 707018, 707019 and 707020, each entitled “Large scale protein arrange target protein identities” and each digitally published on 27 Jan. 2023, the contents of each of which are incorporated herein by reference in their entirety, fo the purposes of the disclosure of the proteins defined by “List B”. “List B” begins in Research Disclosures publication 707018, is continued in Research Disclosures publication 707019, and concludes Research Disclosures publications 707020, and so the three publications are to be read consecutively as a single disclosure of the “List B” proteins. The HuProt™ microarray is not restricted to a particular type of surface coating, although the default is glass coated with ultrathin nitrocellulose film for the non-covalent, yet irreversible, capture of active proteins to the surface.
(§2) Samples of humanised 7B1F3 and mouse 7B1F3 antibodies were analysed for binding specificities on HuProt™ human proteome arrays. A peptide with the sequence TDVLNQSKPVTL (“Peptide 3”) was added to the arrays at 0.1 mg/ml as a control.
(§3) After blocking, the arrays were probed with the antibody samples (0.1 μg/ml) at room temperature for 1 hour. Then the arrays were washed with TBST for 10 min×3 and probed with Alexa647-anti-human IgG Fc or Alexa647-anti-mouse IgG secondary antibodies under conditions optimized by CDI Labs for signal detection.
(§4) • Non-specific hits that directly bind to the secondary antibodies were eliminated from the analysis of the samples. • CDI software was used to quantify the specificity of each individual sample to specific proteins on the array based on Z Scores. • Z score is the average Z score of the duplicate spots of a given protein (each protein is printed in duplicate on a HuProt™ array). The Z score of each spot on a given array is calculated according to the algorithm below:
(§5) Z=[F635−F635(avg)]/F635(std) • F635(avg) and F635(std) are the average and standard deviation of the F635 values of all spots on the array, respectively. • S score is the difference of the Z Scores of a given protein and the one ranked next to it. If the S score of the top hit is >3, the antibody is considered to be highly specific for the top hit. • F635 is the average foreground signal intensity of 2 replicate spots of a given protein in the detection channel (635 nm). • B635 is the average background signal intensity of 2 replicate spots of a given protein in the detection channel (635 nm).

In assay [2] the target is T2, human proteins on HuProt Human Proteome Microarray (Homo sapiens, UniProt Q9UK22).
T2 construct: purchased CDI Labs (HuProt); host or cells: yeast S. cerevisiae
T2 sequence (Q9UK22 1-296): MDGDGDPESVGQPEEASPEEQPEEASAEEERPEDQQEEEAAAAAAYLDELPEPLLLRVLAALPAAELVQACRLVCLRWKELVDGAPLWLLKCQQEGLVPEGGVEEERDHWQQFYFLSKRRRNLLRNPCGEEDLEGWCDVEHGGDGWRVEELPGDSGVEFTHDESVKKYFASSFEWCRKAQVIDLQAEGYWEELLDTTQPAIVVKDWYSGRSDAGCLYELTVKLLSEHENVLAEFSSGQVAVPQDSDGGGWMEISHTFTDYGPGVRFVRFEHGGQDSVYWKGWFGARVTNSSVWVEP
The following applies: Protein: FBXO2.
Description: as §1, §2, §3, §4, §5

Assay [3] has as its target T3, human proteins on HuProt Human Proteome Microarray (Homo sapiens, UniProt Q14847).
T3 construct: purchased CDI Labs (HuProt); host or cells: yeast S. cerevisiae
T3 sequence (Q14847 1-261): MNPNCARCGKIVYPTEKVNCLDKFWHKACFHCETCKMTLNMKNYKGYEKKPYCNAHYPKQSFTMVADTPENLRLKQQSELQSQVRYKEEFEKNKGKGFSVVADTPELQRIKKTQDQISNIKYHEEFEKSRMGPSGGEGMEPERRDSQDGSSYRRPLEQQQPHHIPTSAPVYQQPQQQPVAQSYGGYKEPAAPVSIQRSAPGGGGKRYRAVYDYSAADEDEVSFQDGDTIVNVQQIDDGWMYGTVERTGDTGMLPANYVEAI
As to conditions: Protein: LASP1.
Description: as §1, §2, §3, §4, §5

B1: 7B1F3: mouse IgG1 kappa antibody against US28 ECD1 Peptide-N; VH SEQ ID NO: 211, VL SEQ ID NO: 213 (antibody, V domains shown)
VH: EVQLQQSGAELAKPGASVKMSCKASGYTFTNYWMHWVKQRPGQGLEWIGYVNPRTGYTEYNQKFKDKATLTADKSSRTAYMQLSSLTSEDSAVYSCARILNGTGFAYWGQGTLVTVSA
VL: DIVLTQSPSSLTVSVGEKFTMSCKSSQSLLYSSNQKNYLAWYQQKPGQSPKLLIYWASTRESGVPDRFTGSGSGTDFTLAISSVKPEDLAIYYCQQYYSFPLTFGAGTKLEIK
modifications: Mature form of VH sequence of 7B1F3, without the leader sequence; Mature form of VL sequence of 7B1F3, without the leader sequence
Turning to B1, the F635 in assay [1] is 2080; in assay [2] it was 4683; in assay [3], 3681. In addition, the “Z Score” value amounted to 5.922 in assay [1], 13.486 in assay [2] and 10.575 in assay [3].
